Test results published in patent US20100284934A1.

Columns and labels:
[1] = molecular target: aggregated recombinant human α-synuclein produced by aging (amyloid fibrils) (human) (UniProt P37840); test: ELISA, α-synuclein coated at 100 pmol/well, range of peptide concentrations
[2] = molecular target: aggregated recombinant human α-synuclein produced by aging (amyloid fibrils) (human) (UniProt P37840); test: ELISA, α-synuclein coated at 200 pmol/well, range of peptide concentrations
[3] = molecular target: dopamine treated recombinant human α-synuclein (soluble aggregates, oligomers) (human) (UniProt P37840); test: ELISA, α-synuclein coated, peptide in solution

| Substance | lowest binding concentration detected [1] [pmol/well] | lowest binding concentration detected [2] [pmol/well] | lowest binding concentration detected [3] [pmol/well] |
| --- | --- | --- | --- |
| OR1, Gd-DOTA-rGtvvaGK(biotin)-rrrrrr (peptide) | 10 | – | – |
| OR2, Gd-DOTA-rGvvaGK(biotin)-rrrrrr (peptide) | 10 | – | – |
| OR3, Gd-DOTA-rrrrrrGtvvaGK(biotin)-r (peptide) | – | 10 | – |
| OR4, Gd-DOTA-rrrrrrGvvaGK(biotin)-r (peptide) | – | 10 | – |
| OR5, Gd-DOTA-r-Sar-vva-Sar-K(biotin)-rrrrrr (peptide) | – | 10 | 1 |
